Experimental data reported in PMC3306407, “A Single-Stranded DNA Aptamer That Selectively Binds to Staphylococcus aureus Enterotoxin B”.

Tests used:
[1] = biological target: staphylococcal enterotoxin C2 (SEC2) (Staphylococcus aureus, UniProt P34071 28-266)
[2] = biological target: staphylococcal enterotoxin C3 (SEC3) (Staphylococcus aureus, UniProt P0A0L5 28-266)
[3] = biological target: staphylococcal enterotoxin B (SEB) (Staphylococcus aureus, UniProt P01552 28-266)
[4] = biological target: staphylococcal enterotoxin C1 (SEC1) (Staphylococcus aureus, UniProt P01553 28-266)

B1: APTSEB1 (ssDNA)
DNA: GGTATTGAGGGTCGCATCCACTGGTCGTTGTTGTCTGTTGTCTGTTATGTTGTTTCGTGATGGCTCTAACTCTCCTCT
B1: no binding [1]; no binding [2]; binds [3]. B1: no binding [4].
